Experimental data as given in publication PMC5520056, “Cryo-EM structures of the ATP-bound Vps4^E233Q hexamer and its complex with Vta1 at near-atomic resolution” (Nature Communications, 2017).
Where a chain is given by its changes, count along the chain named. Numbers in names are those of the source.

T1: Vps4 (wild-type, yeast) (Saccharomyces cerevisiae, UniProt P52917 1-437, Cy5 maleimide (labelling efficiency 48%) in the single-molecule assay; unlabelled in the ATPase assay)
T1 sequence (looked up): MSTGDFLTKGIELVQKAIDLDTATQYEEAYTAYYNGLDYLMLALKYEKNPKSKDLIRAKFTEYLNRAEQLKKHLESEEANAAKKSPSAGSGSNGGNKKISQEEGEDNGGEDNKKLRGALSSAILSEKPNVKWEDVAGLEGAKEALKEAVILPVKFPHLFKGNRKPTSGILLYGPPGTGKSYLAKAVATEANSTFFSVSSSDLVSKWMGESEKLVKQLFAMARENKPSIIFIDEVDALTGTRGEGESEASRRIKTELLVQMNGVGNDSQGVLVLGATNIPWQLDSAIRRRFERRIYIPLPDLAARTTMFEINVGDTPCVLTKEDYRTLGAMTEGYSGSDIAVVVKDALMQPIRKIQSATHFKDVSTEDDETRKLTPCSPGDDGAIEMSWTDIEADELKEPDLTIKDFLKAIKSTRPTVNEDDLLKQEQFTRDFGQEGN

T2: Vps4^E233QC376S, Cy5-labelled (single-cysteine mutant) (Saccharomyces cerevisiae, UniProt P52917 1-437, E233Q | C376S, Cy5 maleimide on the single cysteine)
T2 construct: Vps4, Saccharomyces cerevisiae, with E233Q and C376S (only one cysteine left); source: E. coli BL21 (DE3), purified as for other mutant proteins, labelled with Cy5 maleimide
T2 sequence (looked up): T1 sequence (looked up) with E233Q, C376S

B1: Vta1 (Vps twenty associated 1) (natural protein, Saccharomyces cerevisiae)
chain: MASNAARVVATAKDFDKVGLGIIGYYLQLYAVELILSEEDRSQEMTALATELLDTIEAFKKEIGGESEAEDSDKSLHVMNTLIHDQEKAKIYMLNFTMSLYNEKLKQLKDGPWDVMLKRSLWCCIDLFSCILHLWKENISETSTNSLQKRIKYCKIYLSKLAKGEIGSSDEKTLDYADFADDSEEIKDEDVDHQTSDLENNNNDKVEGLAPKDQTTSYEPVDEVPEFIDDADSVNEEEQTVDKNEDAITKDEQQVVKKEVDLTRPSAPSEPAAAEHKSYTKDELTKIMDRASKIEQIQKLAKYAISALNYEDLPTAKDELTKALDLLNSI
notes: Vta1, Saccharomyces cerevisiae, gene amplified from yeast genomic DNA; also called Vta1 dimer; source: E. coli BL21 (DE3), purified (Ni-NTA, apyrase treatment, SEC)
B2: Vta1^C124S154S, Cy3-labelled (single-cysteine mutant) (natural protein, Saccharomyces cerevisiae)
chain: B1 chain with C124S, C154S
modifications: Cy3 maleimide on the single cysteine
notes: Vta1, Saccharomyces cerevisiae, with C124S and C154S (only one cysteine left); source: E. coli BL21 (DE3), purified as for other mutant proteins, labelled with Cy3 maleimide
B3: Vps4^E233Q (full-length yeast Vps4 containing an E233Q mutation) (enzyme, Saccharomyces cerevisiae, UniProt P52917 1-437, looked up)
chain: T1 sequence (looked up) with E233Q
notes: Vps4 (vacuolar protein sorting 4), Saccharomyces cerevisiae, full length, with E233Q; Hexamer with ATP, dimer without ATP; written as the protomer because its self-association is what is measured; also called E233Q mutant; Vps4 E233Q mutant; source: E. coli BL21 (DE3), purified (Ni-NTA, apyrase treatment, SEC)
B4: Vps4 mutant E233QR325A (enzyme, Saccharomyces cerevisiae, UniProt P52917 1-437, looked up)
chain: T1 sequence (looked up) with E233Q, R325A
notes: Vps4, Saccharomyces cerevisiae, with E233Q and R325A; also called E233QR325A mutant; source: E. coli BL21 (DE3), purified (Ni-NTA, apyrase treatment, SEC)

Assays:
[1] = target: B3; assay: SEC; Vps4 mutants at 5 uM with Vta1 at molar ratio 1:2, 1 mM ATP, 4 C, 1 h; Superose 6 10/300 GL in assembly buffer; settings: both partners purified
[2] = target: T1, Vps4 (wild-type, yeast); assay: cell-based or functional assay
[3] = target: the molecule itself; assay: cryo-EM structure; ATP-bound Vps4^E233Q-Vta1 complex (1.5- to 2-fold molar excess of Vta1, 1 mM ATP, Superose 6), no glutaraldehyde; no symmetry imposed; 4.2 A
[4] = target: T2, Vps4^E233QC376S, Cy5-labelled …; assay: fluorescence of two dyes in the SEC-separated complex; Cy5-Vps4 and Cy3-Vta1 single-cysteine mutants incubated at molar ratio 1:2 with ATP on ice 1 h, complex separated by SEC in assembly buffer; concentrations from standard curves of fluorescence; settings: both partners purified
[5] = target: the molecule itself; assay: SEC; oligomeric state without ATP (Supplementary Fig. 9)
[6] = target: the molecule itself; assay: SEC-MALS; 200 ul of 5 mg/ml (50 uM) Vps4^E233Q preincubated with 1 mM ATP at 4 C for 1 h; Superdex 200 10/300 GL; assembly buffer (20 mM HEPES pH 7.5, 100 mM NaCl, 1 mM DTT, 2 mM MgCl2, 1 mM ATP)
[7] = target: the molecule itself; assay: SEC; oligomeric state with ATP: each mutant at 100 uM incubated with 1 mM ATP at 4 C for 1 h; Superdex 200 10/300 GL in assembly buffer

Binder: B1
binding result [1]: binds
ATPase activity (malachite green) of 1 uM wild-type Vps4 in the presence of Vta1 [2]: 2 fold
binding result [3]: binds

Binder: B2
stoichiometry N [4]: 2.06 Vta1/Vps4^E233Q (molar ratio)

Binder: B3
stoichiometry N [5]: 2
stoichiometry N [6]: 6

Binder: B4
stoichiometry N [7]: 6
stoichiometry N [5]: 2
